Measured values reported in patent US20040071656A1, “Modulation of heat-shock-protein-based immunotherapies” (priority 2001, published 2004).

Molecular target: T1, exoplasmic domain of human CD40 (GST-CD40) (Homo sapiens, UniProt P25942)
T1 construct: The cDNA for the exoplasmic domain of CD40 (amino acids 20-212); made in house; host or cells: E. coli, pGEX-2T
Assay: GST-CD40 binding and competition assay with recombinant Hsp70 and its domains
Description: For binding assays with recombinant Hsp70 and its domains, 3 μM His6-Hsp70 or its His6-tagged domains were incubated with 2 mM ATP, 2 mM ADP or 2 mM ADP and 28 μM peptide C in 50 μl binding buffer (10 mM MOPS/KOH, pH 7.2, 150 mM KCl and 3 mM MgCl2) for 30 min at 37° C. In competition experiments binding was probed with either a 10-fold excess of Hsp70, the two domains, or DnaK, or with a 5-fold excess of Hip or Bag 1 for 10 min at 0° C. To this end, Hsp70, N70, C70 and DnaK were preincubated with ADP, ATP and peptide C as described above. For comparison of CD40 binding of Hsp70 and its N-terminal domain, Hsp70 was preincubated in the presence or absence (mock treatment) of a 30-fold molar excess of peptide C. 3 μM of GST or GST-CD40 was added to the samples and incubated for 20 min at 16° C. For titration of peptide C, 5- to 50-fold excess of peptide C (15-150 μM) was added to the preincubation of Hsp70. Thereafter the samples were combined with 20 μl of 1% BSA-treated Glutathione Sepharose 4 Fast Flow and incubated in the presence of 2 mM DTT for another 20 min at 16° C. Unbound proteins were removed by washing the beads three times with 1 ml PBS, and immobilized proteins eluted with 30 μl elution buffer for 20 min at 22° C. 10 μl of the eluates were subjected to SDS-PAGE and analyzed by immunoblotting using a Penta-His-antibody (Quiagen). Blot signals were quantified by Quantity One (Biorad).
Details for FIG. 3. Binding of Hsp70 to CD40 is direct and depends on ADP. A. Hela-cell lysates were incubated with GST (control), or GST-CD40 in the amounts indicated. Thereafter samples were affinity purified on glutathione-Sepharose as outlined in Experimental Procedures, subjected to SDS-PAGE and analyzed by immunoblotting with antibodies directed against Hsc70 and Hsp70 (upper lanes), and against Hsp90 (lower lanes). B. Human recombinant His6-tagged Hsp70 was incubated with ATP, ADP, or an excess of peptide C, followed by addition of GST-CD40 or GST alone. After affinity purification samples were analyzed by immunoblotting as described in A, using antibodies directed against the His6-tag. C. Recombinant human His6-tagged Hsp70 was incubated with peptide C, either in the presence or absence of ADP. The reactions were then incubated with ANA1-cell lysates as described in Experimental Procedures. Protein bound to Hsp70 was analyzed by affinity purification on Ni-NTA-agarose and immunoblotting with antibodies directed against CD40.
Details for FIG. 4. Hsp70 binding to CD40 is mediated by the N-terminal ATPase domain and is competed by Hip. A. Human His6-tagged Hsp70, its N- or C-terminal domains, or recombinant bacterial DnaK was incubated either with GST-CD40, or with GST. B. Recombinant DnaK was incubated with ATP, ADP, or an excess of peptide C, followed by addition of GST-CD40 or GST alone. C. His6-tagged N-terminal domain of Hsp70 (N70) was incubated in the presence of ATP or ADP, followed by incubation with a 10-fold molar excess of Hsp70 in the presence of ADP or ATP. D: Recombinant human His6-tagged Hsp70 protein was incubated with a 5-fold molar excess of either recombinant Hip protein or Bag-1, and with GST-CD40 or GST as a control. Bound protein was analyzed after affinity purification on glutathione-Sepharose by immunoblotting with an antibody directed against the N-terminal His6-tags or with an antibody directed against DnaK.
Details for FIG. 5. Peptide substrate stimulates Hsp70 binding to CD40. A. His6-tagged Hsp70 was incubated with increasing concentrations of peptide C as indicated in the Figure, and binding to GST-CD40 analyzed by immunoblotting with antibodies directed against the His6-tag. The lower panel is a quantitation of the data. B. Equivalent concentrations (3 μM) of His6-tagged Hsp70 (in the presence of a 30-fold molar excess of peptide C) or His6-tagged N70 was incubated with GST-CD40, and bound protein was analyzed as described above.

T1 sequence (P25942 20-212): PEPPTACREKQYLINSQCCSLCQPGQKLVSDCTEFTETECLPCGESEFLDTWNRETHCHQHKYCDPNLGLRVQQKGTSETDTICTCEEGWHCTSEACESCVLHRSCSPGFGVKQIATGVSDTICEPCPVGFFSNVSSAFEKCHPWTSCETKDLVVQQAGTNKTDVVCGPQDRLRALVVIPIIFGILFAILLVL

| Substance | binding efficiency to CD40, substrate-saturated Hsp70 versus N-terminal domain (3 μM each, ADP states, Hsp70 with 30-fold molar excess of peptide C) | direct binding to CD40 (GST-CD40 pull down), nucleotide dependence (ADP versus ATP) | competition for the binding of full-length Hsp70 to CD40 (ADP, 5-fold molar excess of competitor) | Hsp70 binding to CD40 in the presence of ADP (3 μM His6-Hsp70, 2 mM ADP) | Hsp70 binding to CD40 in the presence of ATP (3 μM His6-Hsp70, 2 mM ATP) |
| --- | --- | --- | --- | --- | --- |
| N70: Recombinant N-terminal ATPase domain of human Hsp70, residues 5-381 (SEQ ID NO: 1) | bound to CD40 with similar efficiencies | bound to CD40 in the presence of ADP but not ATP | efficiently competed |  |  |
| Hsp70: Recombinant human heat shock protein 70, expressed and purified as His-tagged protein |  |  |  | only seen in the presence of ADP | barely detectable |
